In patent US20230212294A1 (MINGHUI PHARMACEUTICAL SHANGHAI, published 2023):

T1: B7-H3 endogenously expressed on human tumor cell lines (human, UniProt Q5ZPR3 29-534)
T1 sequence (looked up): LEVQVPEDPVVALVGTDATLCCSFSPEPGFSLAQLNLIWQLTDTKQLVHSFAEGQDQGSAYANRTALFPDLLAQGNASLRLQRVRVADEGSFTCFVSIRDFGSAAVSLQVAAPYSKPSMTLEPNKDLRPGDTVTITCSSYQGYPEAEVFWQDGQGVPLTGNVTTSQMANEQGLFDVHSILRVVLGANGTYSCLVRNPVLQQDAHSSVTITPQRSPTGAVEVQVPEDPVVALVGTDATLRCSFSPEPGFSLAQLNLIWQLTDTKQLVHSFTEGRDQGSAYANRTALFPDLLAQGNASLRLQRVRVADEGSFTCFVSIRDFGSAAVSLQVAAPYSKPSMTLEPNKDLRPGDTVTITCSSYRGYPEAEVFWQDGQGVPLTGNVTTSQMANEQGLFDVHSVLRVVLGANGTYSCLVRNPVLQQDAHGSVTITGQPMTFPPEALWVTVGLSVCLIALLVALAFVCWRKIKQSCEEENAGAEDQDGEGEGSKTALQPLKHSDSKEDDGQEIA

T2: B7-H3 on CHOK cells overexpressing B7-H3
T2 construct: whole, on cells; also called CHO cells that artificially express B7-H3; B7-H3-expressing CHO cells
T2 sequence (Q5ZPR3 whole entry, species assumed, looked up): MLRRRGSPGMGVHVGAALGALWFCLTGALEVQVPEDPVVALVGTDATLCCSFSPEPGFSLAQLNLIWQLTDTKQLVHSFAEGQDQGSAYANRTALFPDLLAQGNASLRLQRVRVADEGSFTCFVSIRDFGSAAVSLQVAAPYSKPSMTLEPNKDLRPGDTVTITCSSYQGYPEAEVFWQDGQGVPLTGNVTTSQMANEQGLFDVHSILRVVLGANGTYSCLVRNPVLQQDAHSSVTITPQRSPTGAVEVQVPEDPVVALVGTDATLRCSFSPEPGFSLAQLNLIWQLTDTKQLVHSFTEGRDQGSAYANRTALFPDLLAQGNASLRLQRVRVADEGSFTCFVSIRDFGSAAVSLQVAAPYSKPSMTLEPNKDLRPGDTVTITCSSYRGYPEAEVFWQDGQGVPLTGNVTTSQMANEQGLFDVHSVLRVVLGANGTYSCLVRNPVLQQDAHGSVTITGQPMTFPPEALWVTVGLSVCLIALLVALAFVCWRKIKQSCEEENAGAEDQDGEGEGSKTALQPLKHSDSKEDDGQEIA

T3: monkey B7-H3-his (monkey)
T3 chain: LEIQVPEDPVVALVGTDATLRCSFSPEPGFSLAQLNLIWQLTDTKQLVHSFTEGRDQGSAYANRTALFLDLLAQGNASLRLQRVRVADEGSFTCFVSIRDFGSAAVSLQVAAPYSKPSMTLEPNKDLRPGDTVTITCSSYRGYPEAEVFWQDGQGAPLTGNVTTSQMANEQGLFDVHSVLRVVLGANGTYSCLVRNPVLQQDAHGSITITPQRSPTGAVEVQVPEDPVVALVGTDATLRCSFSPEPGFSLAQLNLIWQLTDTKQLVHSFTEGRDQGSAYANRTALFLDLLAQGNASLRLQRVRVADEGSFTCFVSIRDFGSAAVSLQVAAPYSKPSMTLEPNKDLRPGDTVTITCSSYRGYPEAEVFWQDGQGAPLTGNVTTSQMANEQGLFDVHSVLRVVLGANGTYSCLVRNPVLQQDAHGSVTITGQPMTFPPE

T4: mouse B7-H3-his (mouse, UniProt Q8VE98 29-244, limits assumed)
T4 construct: His-tagged recombinant protein coated on the ELISA plate; not shown: his tag
T4 sequence (looked up): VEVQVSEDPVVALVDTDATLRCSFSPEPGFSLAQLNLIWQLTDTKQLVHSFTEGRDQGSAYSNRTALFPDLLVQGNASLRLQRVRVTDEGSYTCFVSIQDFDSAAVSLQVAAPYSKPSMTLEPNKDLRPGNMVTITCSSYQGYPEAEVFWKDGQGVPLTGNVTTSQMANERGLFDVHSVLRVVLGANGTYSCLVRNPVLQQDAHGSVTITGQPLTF


Legend:
[1] = target: T1, B7-H3 endogenously expressed on human …; test: cell-based or functional assay
[2] = target: T1, B7-H3 endogenously expressed on human …; test: cell-based or functional assay; remark: listed apart in the source
[3] = target: T2, B7-H3 on CHOK cells overexpressing B7-H3; test: flow cytometry on CHOK cells overexpressing B7-H3
Method: (§1) CHOK cells overexpressing B7-H3 or NCI-H322 cells endogenously expressing B7-H3 were added to a round-bottom 96-well plate at 100,000 cells per well, centrifuged to remove the supernatant, and then added with a gradient-diluted anti-B7-H3 antibody and incubated at 4 degrees for 1 h. After incubation, the cells were washed twice with FACS buffer (PBS containing 2% FBS), then added with fluorescent-labeled goat anti-human secondary antibody (Abcam, ab98596) and incubated for 0.5 h. After incubation, the cells were washed twice with FACS buffer, then resuspended with FACS buffer and detected with flow cytometry (Beckman, cytoFlex).

[4] = target: T1, B7-H3 endogenously expressed on human …; test: flow cytometry on NCI-H322 cells
Method: as §1

[5] = target: T2, B7-H3 on CHOK cells overexpressing B7-H3; test: cell-based or functional assay
[6] = target: T1, B7-H3 endogenously expressed on human …; test: cell-based or functional assay; remark: listed apart in the source
[7] = target: T3, monkey B7-H3-his; test: ELISA, antigen coated at 2 µg/mL
Method: (§2) Human B7-H3-his, mouse B7-H3-his and monkey B7-H3-his were diluted to 2 μg/mL with PBS, and added to the ELISA plate at 30 μL per well. The ELISA plate was then incubated in a refrigerator at 4° C. for 16-20 hours. The next day, the ELISA plate was washed once with a lotion (PBS containing 0.05% Tween 20) and then blocked with 5% skim milk powder for 1 hour. After blocking, the ELISA plate was washed once, then added with gradient-diluted anti-B7-H3 antibodies, and incubated at room temperature for 1 h. After incubated, the ELISA plate was washed three times, then added with goat anti-human HRP-labeled secondary antibody, and incubated at room temperature for 1 h. After incubated, the ELISA plate was washed three times, then developed for 5-15 minutes by adding TMB, and finally terminated with 2M sulfuric acid. The data were recorded on the microplate reader.

[8] = target: T4, mouse B7-H3-his; test: ELISA, antigen coated at 2 µg/mL
Method: as §2

[9] = target: T4, mouse B7-H3-his; test: ELISA, mouse B7-H3-his coated at 2 µg/mL
Method: as §2

Binder	Inhibitory IC50 against proliferation of BxPC-3 cells, 5 days, CellTiter-Glo [1] [nM]	Inhibitory IC50 against proliferation of Calu-6 cells, 5 days, CellTiter-Glo [1] [nM]	Inhibitory IC50 against proliferation of BxPC-3 cells, 72 h, CellTiter-Glo [2] [nM]	Inhibitory IC50 against proliferation of NCI-H1975 cells, 72 h, CellTiter-Glo [2] [nM]	EC50 [3] [µg/mL]	EC50 [4] [µg/mL]	IC50 of CHO endocytosis experiment (toxin-labeled secondary antibody, cell viability) [5] [µg/mL]	IC50 of NCI-H322 endocytosis experiment (toxin-labeled secondary antibody, cell viability) [6] [µg/mL]	EC50 [7] [µg/mL]	EC50 [8] [µg/mL]	binding result [9]
IL-P7-C05-H4L3-MMAE (antibody, V domains shown, MMAE (Monomethyl auristatin E) coupled to the antibody; linker, site and drug load not stated) VH: EVQLVESGGGLVQPGGSLRLSCAASGFTFSSYAMSWVRQAPGKGLELVAAINSNGGSTYYADSVKGRFTISRDNAKNTLYLQMSSLRAEDTAVYYCTRNEEFRRGLAYWGQGTLVTVSS VL: DIQMTQSPSSLSASVGDRVTITCRASENIYSNLAWYQQKPGKAPKLLIYAASNLQSGVPSRFSGSGSGTDYTLTISSLQPEDFATYYCQHFWGTPPWTFGQGTKLEIK	5.5	0.3	7.7	7.4	–	–	–	–	–	–	–
IL-P7-C05-H4L3 (antibody, V domains shown, Humanized from IL-P7-C05; full-length antibody; also called ILP7C05huVH4 + ILP7C05huVL3) VH: EVQLVESGGGLVQPGGSLRLSCAASGFTFSSYAMSWVRQAPGKGLELVAAINSNGGSTYYADSVKGRFTISRDNAKNTLYLQMSSLRAEDTAVYYCTRNEEFRRGLAYWGQGTLVTVSS VL: DIQMTQSPSSLSASVGDRVTITCRASENIYSNLAWYQQKPGKAPKLLIYAASNLQSGVPSRFSGSGSGTDYTLTISSLQPEDFATYYCQHFWGTPPWTFGQGTKLEIK	–	–	–	–	0.48	0.0137	0.0199	0.00253	–	–	–
IL-P5-C06 (antibody, V domains shown, Unhumanized murine variable regions from the murine immune phage library; full-length antibody) VH: QVQLQQSGPELVRPGVSVKISCKGSGYTFTDYAIHWAKQGHAKSLEWIGIINTYNGNSNYNQNFKGKATMTVDKSSSTAYMELTRLTSEDSAIYYCARNYGSSFNWYFDVWGQGTTLTVSS VL: DIVLTQSPTTMAASPGEKITITCSASSSISSNYLHWYQQKPGFSPKLLIYSTSNLASGVPARFSGSGSGTSYSLTISSVEAEDAATYYCQQYSGYPLTFGAGTKLELK	–	–	–	–	0.954	0.0795	0.0209	0.0025	0.116	0.134	–
IL-P6-C08 (antibody, V domains shown, Unhumanized murine variable regions; full-length antibody) VH: EVKLVESGGDLVKPGGSLKLSCAASGFTFSSYGMSWVRQTSDKRLEWVATISGGGRYTYYPDSVKGRFTISRDSSKNTLYLQMSSLKSEDTAMYYCVRHYDGYLDYWGLGTTLTVSS VL: DIQMIQSPASLSASVGETVTITCRASENIYSYLAWYQQKQGKSPQLLVYNAKTLAEGVPSRFSGSGSGTQFSLKINSLQPEDFGSYYCQHHYGTPPYTFGGGTKLEIK	–	–	–	–	–	0.158	–	–	0.0541	–	no binding
IL-P7-A06 (antibody, V domains shown, Unhumanized murine variable regions; full-length antibody) VH: QVQLQQSGPEVVRPGVSVKISCKGSGYTFTDYAMHWVKQSHAKSLEWIGIINTYNGNTNYNQKFKGKATMTVDKSSSTAYMEFARLTSEDSAIYYCARSRGPWDRYFDVWGAGTTVTVSS VL: DIVMTQSQKFMSTSVGDRVSVTCKASQNVGTAVAWYQQKPGQSPKLLIYSASNRYTGVPDRFTGSGSGTDFTLTISNMQSEDLADYFCQQYSSYPFTFGSGTKLEIK	–	–	–	–	0.278	0.072	0.0086	–	–	–	no binding
IL-P5-B01 (antibody, V domains shown, Unhumanized murine variable regions; full-length antibody) VH: EVQLQESGPSLVKPSQTLSLTCSVTGDSITSGSWNWIRKFPGNKLEYMGYISYSGSIYYNPSLKSRISITRDTSKNQYYLQLNSVTTEDTATYYCARGNPAWFAYWGQGTLVTVSA VL: DIVMTQSQKFMSTSVGDRVSVTCKASQNVGTNVAWYQQKPGQSPKALIYSASYRYSGVPDRFTGSGSGTDFTLTISNVQSEDLAEYFCQQYNSYPYTFGGGTKLEIK	–	–	–	–	0.43	0.131	0.0028	–	0.115	–	no binding
IL-P6-D06 (antibody, V domains shown, Unhumanized murine variable regions; full-length antibody) VH: QVQLQQSGPELVRPGVSVKISCKGSGYTFTDYAIHWVKQSHAKSLEWIGVINTYSGNTNYNQKFKGRATMTVDKSSSTAYMELARLTSEDSAIYFCARGVTYGSGYPYWYFDVWGAGTTVTVSS VL: DIVMTQSQKFMSTSVGDRVSVTCKASQNVGTNVAWYQQKPGQSPKALIYSASYRYSGVPDRFTGSGSGTDFTLTISNVQSEDLAEYFCQQYNSYPYTFGGGTKLEIK	–	–	–	–	0.245	0.103	–	0.00179	0.119	1.13	–
IL-P7-C05 (antibody, V domains shown, Unhumanized murine variable regions from the murine immune phage library; tested as full-length antibody expressed in ExpiCHO-S cells) VH: EVQLVESGGDLVQPGGSLKLSCAASGFTFSSYGMSWVRQTPDKRLELVATINSNGGTTYYPDSVKGRFTISRDNAKHTLYLQMSSLKSEDTAMYYCTRNEEFRRGLAYWGQGTLVTVSA VL: DIQMIQSPASLSVSVGETVTITCRASENIYSNLAWYQQKQGKSPQLLVYAATNLADGVPSRFSGSGSGTQYSLKINSLQSEDFGSYYCQHFWGTPPWTFGGGTKLEIK	–	–	–	–	0.487	0.0126	0.0144	0.00296	0.14	1.21	–
